In article PMC4091835:
pKd: −log10 of the molar value.

Key:
[1] = target: Eps8–IRSp53 complex (BAR–SH3 FRET reporter saturated with Eps8) (human) (UniProt Q12929); experiment: other fluorescence titration
[2] = target: BAR–SH3 FRET reporter (IRSp53 construct BAR–SH3 S452C, labelled with fluorescein maleimide and rhodamine maleimide) (human); experiment: other fluorescence titration
[3] = target: IRSp53 BAR–SH3 double mutant P278D P281D (human); experiment: ITC
[4] = target: IRSp53 construct BAR–SH3 (human); experiment: ITC
[5] = target: Cdc42_(G12V)–IRSp53 complex (BAR–SH3 FRET reporter titrated first with GMP-PNP–Cdc42_(G12V)) (human) (UniProt P60953); experiment: other fluorescence titration

Sequence of Human Eps8 (Q12929 whole entry): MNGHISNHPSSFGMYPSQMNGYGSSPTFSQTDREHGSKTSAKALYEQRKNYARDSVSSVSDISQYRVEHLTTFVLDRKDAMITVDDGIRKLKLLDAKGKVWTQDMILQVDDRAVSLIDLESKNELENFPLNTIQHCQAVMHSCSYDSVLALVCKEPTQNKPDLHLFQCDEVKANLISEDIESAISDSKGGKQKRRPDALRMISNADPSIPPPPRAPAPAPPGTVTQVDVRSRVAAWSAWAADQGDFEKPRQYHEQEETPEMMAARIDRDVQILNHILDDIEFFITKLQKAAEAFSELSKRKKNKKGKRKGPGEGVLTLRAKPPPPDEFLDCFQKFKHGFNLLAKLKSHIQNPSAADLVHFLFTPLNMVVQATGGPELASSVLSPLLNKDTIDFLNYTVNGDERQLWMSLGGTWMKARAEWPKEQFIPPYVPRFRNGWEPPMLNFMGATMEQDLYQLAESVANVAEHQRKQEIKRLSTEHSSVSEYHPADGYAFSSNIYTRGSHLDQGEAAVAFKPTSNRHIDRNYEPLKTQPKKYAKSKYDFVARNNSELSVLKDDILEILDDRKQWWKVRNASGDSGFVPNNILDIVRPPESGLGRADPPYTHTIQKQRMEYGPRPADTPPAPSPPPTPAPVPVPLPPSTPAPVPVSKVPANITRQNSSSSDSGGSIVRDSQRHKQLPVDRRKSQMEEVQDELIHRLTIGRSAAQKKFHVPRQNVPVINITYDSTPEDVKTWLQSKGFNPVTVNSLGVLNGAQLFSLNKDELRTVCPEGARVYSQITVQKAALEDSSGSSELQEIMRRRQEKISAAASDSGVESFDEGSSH

Substance | pKd [1] | pKd [2] | pKd [3] | pKd [4] | pKd [5]
Human Cdc42 residues 1–178, constitutively active mutant G12V (from UniProt P60953 1-178) (domain or fragment) | 4.97 | 5.62 | 4.97 | 5.33 | –
Human Eps8 (from UniProt Q12929 1-822) (natural protein) | – | – | – | – | 5.96
